Measurements taken from publication PMC11233452.

molecular target: T1, PsrA (Pseudomonas aeruginosa PAO1) (UniProt Q9HZJ9); experiment: EMSA
T1 sequence: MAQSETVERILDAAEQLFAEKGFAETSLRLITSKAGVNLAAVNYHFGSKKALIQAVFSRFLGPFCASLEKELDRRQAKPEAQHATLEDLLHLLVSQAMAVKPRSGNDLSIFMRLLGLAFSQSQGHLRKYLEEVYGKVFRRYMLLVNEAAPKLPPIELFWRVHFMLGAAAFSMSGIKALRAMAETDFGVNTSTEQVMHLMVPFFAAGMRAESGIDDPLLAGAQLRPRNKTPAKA

Sequence	binding
CGCTTCCCTTGATCGGGTCAGGTTGCCGCTACTGTGGAAGAAGCGTCGAGGACTCGATAGATAGCGCCCGAGTGTTTCAACTTGTCTTCTGGATGACGTTTTCATCGGGGAAACCTCCCGTCGGTCAGTGAAGCGCAAGGGCTGGCGTGCGAGGGTGGAATCGGCCGCCGGCTCGCTTTCTGCGCGGCGGGCGCACGGCACGGGGAGTCGTCGTTTTGGAGGTGAGGGATGACGGCTCTGTTTCAGGA (double strand) [PmvfR 223-470 bp]	no binding
TGTGCGGTTGTGACAATTCCATGAAACGCCGACAGGCCGCCGCCATGGCCGGGTCCTCGAGCAAGCGCCACAGCGCCCCGCGCAACTCCTGCTCGCGCAACGGCACGCCCAGGCGCATCCCGCAGCCGAGCCGGACCAGCCGTTCGGCATTGTCGAACTGGTCGTGGGCACAGGGCAGCAGCACCTGCGGCACCCCCGCCGCCAAGGCTAGGCTCATGGCGCCGATACCGCCCGGATGGACCAGCCCGGCGCACGATGGCAGCAAGGCTCCCAGTGGCGCGTA (double strand) [PrhlR 11-293 bp]	no binding
GCGCACGGCACGGGGAGTCGTCGTTTTGGAGGTGAGGGATGACGGCTCTGTTTCAGGATATTTTTATAATTATGTGAAAGAAGAGCTTATTTCAACGAAATATGTTTCATATTGCTCGTAAATTCGACGAAAAGAAAATCCGGATATTTACCGGTTATTTAACGTTAATACCAAGGGCCTAATACCAAAGTATTAACGCTGGCATGCCGGCATGTCGTGTTCGGTCGTGGAGCGAGCCGAGCCAGGAACGGTTCTAAGAAACGA (double strand) [PmvfR 17-280 bp]	no binding
TGGCGATGGGCCGACAGTGAACCCGGGGACCAGGTGTGACTGGGTATTCAGTTCGCATAAAATGTGATCTAGATCACATTTAAACGTTTGCTTACCCTCTAGGACGGGTATCGTACTAGGTGCATCAAACGCTGCGGTCTATTGTTAAGTGGGACTGAAATGTGCCTTTCCGGCACAACGCCAACTCTATAG (double strand) [PlasR 153-344 bp]	binds
CCTGTCGGCGTTTCATGGAATTGTCACAACCGCACAGTATCGCTTGCGGTAAAGCGGCCCAGGTGGTCGAACGTTGTCATAGGGAGGGGGATGCTCGATGGCTGAAGGCTGCGTCCTGAACGGTGCTGGCATAACAGATAGGGTTGCCATGATTTTGCCGTATCGGCAAGGCTGCGCGCTTGACAGCGTCATACCCCGGGCCAATTCTGCTGTGATGCATTTTATCGATCAGGGCTTACTGCAATGAGGAATGACGGAGGCTTTTTGCTGTGGTGGGACGGTTTGCGTAGCGAGATG (double strand) [PrhlR 258-544 bp]	no binding
